For orientation: stoichiometry N means the number of molecules, sites or subunits per partner or assembly. One may read the koff as the rate constant with which the complex falls apart. Broadly, the kon is the rate constant with which the complex forms. A low value points to slow association. The Kd is the concentration at which binding is half-saturated.

The values below come from article PMC12583548.

Assay [1] deals with HAstV1 capsid spike domain mutant K467A, 10x histidine-tagged (human astrovirus 1 (HAstV1)) (UniProt O12792). The assay can be described thus: SEC; Superdex 200 Increase 10/300 GL, HAstV1 spike mutants alone. (Size exclusion chromatography separates by hydrodynamic size, large species first.)
Assay [2] shares this target. The experiment in a line: SEC; Superdex 200 Increase 10/300 GL; traces of the HAstV1 spike mutants overlayed with BioRad gel filtration standards.
The target in assay [3] is HAstV1 capsid spike domain mutant K467H, Avitag-biotinylated (human astrovirus 1 (HAstV1)) (UniProt O12792). Described as above.
In assay [4] the target is HAstV1 capsid spike domain mutant K514A, 10x histidine-tagged (human astrovirus 1 (HAstV1)) (UniProt O12792). The experiment in a line: SEC; Superdex 200 Increase 10/300 GL, HAstV1 spike mutants alone.
For assay [5] the target is unchanged. The assay can be described thus: SEC; Superdex 200 Increase 10/300 GL; traces of the HAstV1 spike mutants overlayed with BioRad gel filtration standards.
Assay [6] has as its target HAstV1 capsid spike domain mutant Y475A, 10x histidine-tagged (human astrovirus 1 (HAstV1)) (UniProt O12792). The experiment in a line: SEC; Superdex 200 Increase 10/300 GL, HAstV1 spike mutants alone.
For assay [7] the target is unchanged. The assay can be described thus: SEC; Superdex 200 Increase 10/300 GL; traces of the HAstV1 spike mutants overlayed with BioRad gel filtration standards.
Assay [8] deals with HAstV1 capsid spike domain triple mutant 3A (K467A, Y475A, K514A), 10x histidine-tagged (human astrovirus 1 (HAstV1)) (UniProt O12792). The experiment in a line: SEC; Superdex 200 Increase 10/300 GL, HAstV1 spike mutants alone.
The target is the same in assay [9]. The assay can be described thus: SEC; Superdex 200 Increase 10/300 GL; traces of the HAstV1 spike mutants overlayed with BioRad gel filtration standards.
For assay [10], the target named is HAstV1 capsid spike domain, Avitag-biotinylated (human astrovirus 1 (HAstV1)) (UniProt O12792). The experiment in a line: BLI; streptavidin biosensor loaded with biotinylated HAstV1 spike; wild-type or mutant FcRn in solution (500-31.25 nM series; T149N_G151T_D153E at 2000 and 1000 nM); pH 7.0 (0.1 M sodium phosphate, 150 mM NaCl, 0.05% Tween-20), 25 °C; 1:1 model; triplicate. A general note: Biolayer interferometry detects binding as a change in optical thickness at a sensor tip.

The target in assay [11] is HAstV1 capsid spike domain mutant K467H, Avitag-biotinylated (human astrovirus 1 (HAstV1)) (UniProt O12792). The assay can be described thus: BLI; streptavidin biosensors loaded with biotinylated HAstV1 K467H spike, dipped into FcRn (2000 nM); pH 7.0 (0.1 M sodium phosphate, 150 mM NaCl, 0.05% Tween-20), 25 °C; 1:1 model; average of three replicates.
Assay [12] shares this target. The experiment in a line: BLI; streptavidin biosensors loaded with biotinylated HAstV1 K467H spike, dipped into FcRn (1000, 500, 250 nM); pH 5.0 (0.1 M sodium acetate, 150 mM NaCl, 0.05% Tween-20), 25 °C; 1:1 model; average of three replicates.
Assay [13] deals with HAstV1 capsid spike domain, Avitag-biotinylated (human astrovirus 1 (HAstV1)) (UniProt O12792). The assay can be described thus: BLI; biosensors loaded with biotinylated HAstV1 spike (streptavidin, as in Fig. 1a); human or mouse FcRn in solution, 500, 250, 125, 62.5 nM; pH 7.0 (0.1 M sodium phosphate, 150 mM NaCl, 0.05% Tween-20), 25 °C; 1:1 model; average of three replicates.

Assay [14] has as its target HAstV1 capsid spike domain mutant K514A, 10x histidine-tagged (human astrovirus 1 (HAstV1)) (UniProt O12792). The experiment in a line: BLI; HIS1K biosensors loaded with 10x histidine-tagged spike, FcRn in solution at 1000, 500, 250, 125 and 62.5 nM; pH 7.0 buffer, 25 °C; 1:1 model.
Assay [15] deals with HAstV2 capsid spike domain, 10x histidine-tagged (human astrovirus 2 (HAstV2)). The description is as above.
For assay [16], the target named is HAstV4 capsid spike domain, 10x histidine-tagged (human astrovirus 4 (HAstV4)). Described as above.
Assay [17] has as its target HAstV5 capsid spike domain, 10x histidine-tagged (human astrovirus 5 (HAstV5)). Described as above.
The target of assay [18] is HAstV6 capsid spike domain, 10x histidine-tagged (human astrovirus 6 (HAstV6)). Described as above.
Assay [19] concerns the target HAstV1 capsid spike domain mutant K467A, 10x histidine-tagged (human astrovirus 1 (HAstV1)) (UniProt O12792). The experiment in a line: BLI; HIS1K biosensors loaded with histidine-tagged spike, FcRn in solution at a single concentration of 2000 nM, kinetics estimated from that one concentration; pH 7.0 buffer, 25 °C; 1:1 model.
Assay [20] has as its target HAstV1 capsid spike domain mutant Y475A, 10x histidine-tagged (human astrovirus 1 (HAstV1)) (UniProt O12792). Described as above.
The target of assay [21] is HAstV3 capsid spike domain, 10x histidine-tagged (human astrovirus 3 (HAstV3)). The assay is described as above.
Assay [22] deals with HAstV7 capsid spike domain, 10x histidine-tagged (human astrovirus 7 (HAstV7)). The description is as above.
In assay [23] the target is HAstV1 capsid spike domain mutant K467H, Avitag-biotinylated (human astrovirus 1 (HAstV1)) (UniProt O12792). The assay can be described thus: BLI; streptavidin biosensors loaded with Avitag-biotinylated spike, FcRn in solution (500-62.5 nM for the wild type); pH 7.0 (0.1 M sodium phosphate, 150 mM NaCl, 0.05% Tween-20), 25 °C; 1:1 model.

With “HAstV1 capsid spike domain mutant K467A, 10x histidine-tagged (from UniProt O12792 433-645) (domain or fragment)”, the stoichiometry N in [1] and in [2] was 2 in each case.

Regarding “HAstV1 capsid spike domain mutant K467H, Avitag-biotinylated (from UniProt O12792 433-645) (domain or fragment)”, the stoichiometry N in assay [3] was 2.

Turning to “HAstV1 capsid spike domain mutant K514A, 10x histidine-tagged (from UniProt O12792 433-645) (domain or fragment)”, the stoichiometry N in [4] and in assay [5] was 2 each time.

Regarding “HAstV1 capsid spike domain mutant Y475A, 10x histidine-tagged (from UniProt O12792 433-645) (domain or fragment)”, the stoichiometry N in [6] and in assay [7] was 2 throughout.

As to “HAstV1 capsid spike domain triple mutant 3 A (K467A, Y475A, K514A), 10x histidine-tagged (from UniProt O12792 433-645) (domain or fragment)”, the stoichiometry N in assay [8] is 2.

In [9], “HAstV1 capsid spike domain triple mutant 3A (K467A, Y475A, K514A), 10x histidine-tagged (from UniProt O12792 433-645) (domain or fragment)” gave a stoichiometry N of 2.

With “human FcRn mutant D153E (ectodomain heterodimer with β2 microglobulin) (from UniProt P55899 24-297; P61769 21-119) (receptor)”, in assay [10], the koff was 0.14 s⁻¹ and the kon was determined as 85000 M⁻¹ s⁻¹.

Consider “human FcRn mutant T149N_G151T (ectodomain heterodimer with β2 microglobulin) (from UniProt P55899 24-297; P61769 21-119) (receptor)”, for which, in [10], the koff turned out to be 0.034 s⁻¹ and the kon is 74000 M⁻¹ s⁻¹.

For the substance “human FcRn mutant T149N_G151T_D153E (ectodomain heterodimer with β2 microglobulin) (from UniProt P55899 24-297; P61769 21-119) (receptor)”, in assay [10], the Kd came out at 11.9 µM, the koff worked out at 0.37 s⁻¹ and the kon is 31000 M⁻¹ s⁻¹.

As for “human neonatal Fc receptor (FcRn), wild-type ectodomain heterodimer of αFcRn and β2 microglobulin (from UniProt P55899 24-297; P61769 21-119)”, the koff in [11] is 0.24 s⁻¹; in assay [12] it was 0.051 s⁻¹; in assay [13], 0.018 s⁻¹; in assay [10], 0.0223 s⁻¹. For the same substance, the kon turned out to be 11000 M⁻¹ s⁻¹ in assay [11], 66000 M⁻¹ s⁻¹ in assay [12], 94000 M⁻¹ s⁻¹ in assay [13] and 93000 M⁻¹ s⁻¹ in assay [10].

Turning to “neonatal Fc receptor (FcRn), recombinant human ectodomain heterodimer of FcRn α-chain and β2 microglobulin, with tags (from UniProt P55899;P61769)”, the Kd was 2.5 µM in assay [14]; 0.23 µM in assay [16]; 0.152 µM in assay [17]; 15 µM in assay [19]; 8 µM in assay [20]; 181 µM in assay [21]. The figures for the Kd in assay [22] and in assay [23] were 10.3 µM and 22.5 µM, respectively. Besides, the koff is 0.056 s⁻¹ in [14]; 0.048 s⁻¹ in assay [15]; 0.006 s⁻¹ in assay [17]; 0.015 s⁻¹ in [18]; 0.284 s⁻¹ in assay [19]; 0.22 s⁻¹ in assay [20]. Moreover, the values for the koff in [21] and in [22] were 0.099 s⁻¹ and 0.013 s⁻¹, respectively.
